Values quoted from earlier work as cited in patent publication US5993783A, “Method and apparatus for pulmonary administration of dry powder α1-antitrypsin” (Inhale Therapeutic Systems, priority 1998, dated 1999).

Conditions: similar sheep model, Smith et al. 1989

**Q.** With “α1AT: α1-antitrypsin, a protease inhibitor with inhibitory activity toward neutrophil elastase” as the substance, how does the “rate of clearance of α1AT out of the lungs, % of the total rate of α1AT transported out of the lung” value read?
**A.** 16.1±10.4%
